PMC11300593

How the values were obtained:
Assay in all cases: dynamic light scattering; DLS at 20 mg/ml, 25 °C, with and without ammonium sulfate; dimer to monomers
[1] = biological target: SlOPR3 variant R283E (tomato) (UniProt Q9FEW9)
[2] = biological target: 12-oxophytodienoate reductase 3 from tomato (SlOPR3), wild type (tomato) (UniProt Q9FEW9)
[3] = biological target: SlOPR3 variant Y364P (tomato) (UniProt Q9FEW9)

In the case of “SlOPR3 variant R283E (from UniProt Q9FEW9 1-396) (enzyme)”, the stoichiometry N [1] is reported as 2.
“12-oxophytodienoate reductase 3 from tomato (SlOPR3), wild type (from UniProt Q9FEW9 1-396) (enzyme)” was tested, and the stoichiometry N [2] was 2.
In the case of “SlOPR3 variant Y364P (from UniProt Q9FEW9 1-396) (enzyme)”, the stoichiometry N [3] is reported as 2.
